Earlier results on 1 substance are cited in paper PMC12188314.

The target of this data set is Rab27A (Mus musculus) (UniProt Q9ERI2).
UniProt Q9ERI2, sequence (Q9ERI2 2-221): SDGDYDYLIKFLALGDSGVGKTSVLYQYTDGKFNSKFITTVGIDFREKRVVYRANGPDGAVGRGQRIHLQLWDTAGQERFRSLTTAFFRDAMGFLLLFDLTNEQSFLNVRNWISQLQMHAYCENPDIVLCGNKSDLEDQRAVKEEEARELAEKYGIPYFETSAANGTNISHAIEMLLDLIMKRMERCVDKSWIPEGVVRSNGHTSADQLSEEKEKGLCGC

Slp2-a SHD (from UniProt Q99N50): the Kd is 13 nM.
